For the assay, the target named is T1, Factor VIIIa (recombinant FVIII, Kogenate FS, Bayer healthcare, activated with alpha-thrombin) (UniProt P00451 20-2351, limits assumed).
T1 construct: also called FVIIIa; cofactor
T1 sequence (looked up): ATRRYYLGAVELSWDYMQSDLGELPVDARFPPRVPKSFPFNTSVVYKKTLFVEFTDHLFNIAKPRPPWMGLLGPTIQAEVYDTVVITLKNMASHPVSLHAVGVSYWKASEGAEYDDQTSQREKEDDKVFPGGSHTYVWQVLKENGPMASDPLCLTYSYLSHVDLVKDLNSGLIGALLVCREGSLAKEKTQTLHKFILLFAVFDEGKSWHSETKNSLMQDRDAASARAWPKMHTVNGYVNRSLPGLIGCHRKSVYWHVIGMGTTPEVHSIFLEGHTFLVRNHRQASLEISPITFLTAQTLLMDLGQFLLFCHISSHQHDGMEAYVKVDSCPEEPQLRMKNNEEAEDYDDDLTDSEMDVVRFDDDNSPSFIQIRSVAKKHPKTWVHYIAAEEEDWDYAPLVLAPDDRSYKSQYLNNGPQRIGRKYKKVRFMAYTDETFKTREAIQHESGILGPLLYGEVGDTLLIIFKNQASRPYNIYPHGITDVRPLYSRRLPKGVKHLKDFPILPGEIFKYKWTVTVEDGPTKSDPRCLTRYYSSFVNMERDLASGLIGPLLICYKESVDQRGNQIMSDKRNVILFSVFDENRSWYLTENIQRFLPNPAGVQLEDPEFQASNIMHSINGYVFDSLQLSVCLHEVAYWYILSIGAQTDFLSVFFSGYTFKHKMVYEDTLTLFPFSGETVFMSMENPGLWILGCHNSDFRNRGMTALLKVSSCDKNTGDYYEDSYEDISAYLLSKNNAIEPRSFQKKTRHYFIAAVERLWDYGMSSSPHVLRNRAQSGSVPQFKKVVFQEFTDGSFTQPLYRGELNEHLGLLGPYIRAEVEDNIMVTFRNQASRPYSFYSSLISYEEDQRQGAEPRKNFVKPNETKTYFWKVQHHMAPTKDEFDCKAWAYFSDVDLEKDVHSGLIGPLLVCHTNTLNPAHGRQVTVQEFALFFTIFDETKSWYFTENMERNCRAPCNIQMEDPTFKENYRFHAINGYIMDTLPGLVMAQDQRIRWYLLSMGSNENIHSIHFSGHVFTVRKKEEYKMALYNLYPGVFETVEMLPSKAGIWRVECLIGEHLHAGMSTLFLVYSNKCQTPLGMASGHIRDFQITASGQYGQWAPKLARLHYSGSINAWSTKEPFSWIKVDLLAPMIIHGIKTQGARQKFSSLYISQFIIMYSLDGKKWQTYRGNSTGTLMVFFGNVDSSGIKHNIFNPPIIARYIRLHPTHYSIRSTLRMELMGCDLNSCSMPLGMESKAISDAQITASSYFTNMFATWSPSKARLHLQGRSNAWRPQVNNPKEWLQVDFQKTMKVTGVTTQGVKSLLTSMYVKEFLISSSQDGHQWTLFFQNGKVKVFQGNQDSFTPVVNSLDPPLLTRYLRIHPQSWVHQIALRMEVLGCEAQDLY
Nature of the assay: same assay; KD-app of Catalyst Biosciences WT FIXa divided by KD-app of the variant. How it is done:
The molar concentration of FVIII was then determined by absorbance at 280 nm using an extinction coefficient of 1.567 mg⁻¹ mL cm⁻¹ and a molecular weight of 163.6 kDa.

Where a chain is given by its changes, count along the chain named. Numbers in names are those of the source.

KD-WT/KD-mut data for two molecules are collected here from patent US20210230570A1 (published 2021).

B1: FIXa-Y155F/K247N/N249S/R318Y/R338E/E410N (enzyme)
chain 1: YNSGKLEEFVQGNLERECMEEKCSFEEAREVFENTERTTEFWKQYVDGDQCESNPCLNGGSCKDDINSYECWCPFGFEGKNCELDVTCNIKNGRCEQFCKNSADNKVVCSCTEGYRLAENQKSCEPAVPFPCGRVSVSQTSKLTR
chain 2: VVGGEDAKPGQFPWQVVLNGKVDAFCGGSIVNEKWIVTAAHCVETGVKITVVAGEHNIEETEHTEQNRSVIRIIPHHNYNAAINKYNHDIALLELDEPLVLNSYVTPICIADKEYTNIFLKFGSGYVSGWGRVFHKGYSALVLQYLRVPLVDRATCLESTKFTIYNNMFCAGFHEGGRDSCQGDSGGPHVTEVEGTSFLTGIISWGEECAMKGKYGIYTKVSRYVNWIKNKTKLT
Turning to B1, the KD-WT/KD-mut turned out to be 12.8 ratio.

B2: FIXa-Y259F/K265T/Y345T (enzyme)
chain 1: B1 chain 1
chain 2: B1 chain 2 with N67K, S69N, Y79F, K85T, Y138R, E158R, Y165T, N230E
notes: also called Y94F/K98T/Y177T (chymotrypsin numbering)
For B2, the KD-WT/KD-mut turned out to be 0.8 ratio.
